# Test results taken from PMC7374751.
# pKd, pKi: −log10 of the molar value.
# Biological target: TIMP-2 (Homo sapiens) (UniProt P16035)
# Test: not given
# Settings: cited from earlier work
# MMP-1, sequence (P03956 100-469): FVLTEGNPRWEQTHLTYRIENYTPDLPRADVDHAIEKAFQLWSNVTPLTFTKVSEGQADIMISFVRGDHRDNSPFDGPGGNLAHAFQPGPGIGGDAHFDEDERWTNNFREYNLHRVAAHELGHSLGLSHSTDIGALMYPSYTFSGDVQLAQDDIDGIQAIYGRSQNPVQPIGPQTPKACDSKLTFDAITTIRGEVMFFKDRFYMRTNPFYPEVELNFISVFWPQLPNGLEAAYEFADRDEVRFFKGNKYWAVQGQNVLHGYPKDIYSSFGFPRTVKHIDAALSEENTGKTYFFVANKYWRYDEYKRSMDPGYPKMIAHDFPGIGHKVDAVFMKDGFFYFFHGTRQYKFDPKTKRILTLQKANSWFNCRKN
row,Substance,pKi
1,MMP-1 (from UniProt P03956),8.99

# Biological target: low-density lipoprotein receptor-related protein 1 (LRP-1) (UniProt Q07954)
# Test: not given
# Settings: not given
# low-density lipoprotein receptor-related protein 1 (LRP-1), sequence (Q07954 20-4544): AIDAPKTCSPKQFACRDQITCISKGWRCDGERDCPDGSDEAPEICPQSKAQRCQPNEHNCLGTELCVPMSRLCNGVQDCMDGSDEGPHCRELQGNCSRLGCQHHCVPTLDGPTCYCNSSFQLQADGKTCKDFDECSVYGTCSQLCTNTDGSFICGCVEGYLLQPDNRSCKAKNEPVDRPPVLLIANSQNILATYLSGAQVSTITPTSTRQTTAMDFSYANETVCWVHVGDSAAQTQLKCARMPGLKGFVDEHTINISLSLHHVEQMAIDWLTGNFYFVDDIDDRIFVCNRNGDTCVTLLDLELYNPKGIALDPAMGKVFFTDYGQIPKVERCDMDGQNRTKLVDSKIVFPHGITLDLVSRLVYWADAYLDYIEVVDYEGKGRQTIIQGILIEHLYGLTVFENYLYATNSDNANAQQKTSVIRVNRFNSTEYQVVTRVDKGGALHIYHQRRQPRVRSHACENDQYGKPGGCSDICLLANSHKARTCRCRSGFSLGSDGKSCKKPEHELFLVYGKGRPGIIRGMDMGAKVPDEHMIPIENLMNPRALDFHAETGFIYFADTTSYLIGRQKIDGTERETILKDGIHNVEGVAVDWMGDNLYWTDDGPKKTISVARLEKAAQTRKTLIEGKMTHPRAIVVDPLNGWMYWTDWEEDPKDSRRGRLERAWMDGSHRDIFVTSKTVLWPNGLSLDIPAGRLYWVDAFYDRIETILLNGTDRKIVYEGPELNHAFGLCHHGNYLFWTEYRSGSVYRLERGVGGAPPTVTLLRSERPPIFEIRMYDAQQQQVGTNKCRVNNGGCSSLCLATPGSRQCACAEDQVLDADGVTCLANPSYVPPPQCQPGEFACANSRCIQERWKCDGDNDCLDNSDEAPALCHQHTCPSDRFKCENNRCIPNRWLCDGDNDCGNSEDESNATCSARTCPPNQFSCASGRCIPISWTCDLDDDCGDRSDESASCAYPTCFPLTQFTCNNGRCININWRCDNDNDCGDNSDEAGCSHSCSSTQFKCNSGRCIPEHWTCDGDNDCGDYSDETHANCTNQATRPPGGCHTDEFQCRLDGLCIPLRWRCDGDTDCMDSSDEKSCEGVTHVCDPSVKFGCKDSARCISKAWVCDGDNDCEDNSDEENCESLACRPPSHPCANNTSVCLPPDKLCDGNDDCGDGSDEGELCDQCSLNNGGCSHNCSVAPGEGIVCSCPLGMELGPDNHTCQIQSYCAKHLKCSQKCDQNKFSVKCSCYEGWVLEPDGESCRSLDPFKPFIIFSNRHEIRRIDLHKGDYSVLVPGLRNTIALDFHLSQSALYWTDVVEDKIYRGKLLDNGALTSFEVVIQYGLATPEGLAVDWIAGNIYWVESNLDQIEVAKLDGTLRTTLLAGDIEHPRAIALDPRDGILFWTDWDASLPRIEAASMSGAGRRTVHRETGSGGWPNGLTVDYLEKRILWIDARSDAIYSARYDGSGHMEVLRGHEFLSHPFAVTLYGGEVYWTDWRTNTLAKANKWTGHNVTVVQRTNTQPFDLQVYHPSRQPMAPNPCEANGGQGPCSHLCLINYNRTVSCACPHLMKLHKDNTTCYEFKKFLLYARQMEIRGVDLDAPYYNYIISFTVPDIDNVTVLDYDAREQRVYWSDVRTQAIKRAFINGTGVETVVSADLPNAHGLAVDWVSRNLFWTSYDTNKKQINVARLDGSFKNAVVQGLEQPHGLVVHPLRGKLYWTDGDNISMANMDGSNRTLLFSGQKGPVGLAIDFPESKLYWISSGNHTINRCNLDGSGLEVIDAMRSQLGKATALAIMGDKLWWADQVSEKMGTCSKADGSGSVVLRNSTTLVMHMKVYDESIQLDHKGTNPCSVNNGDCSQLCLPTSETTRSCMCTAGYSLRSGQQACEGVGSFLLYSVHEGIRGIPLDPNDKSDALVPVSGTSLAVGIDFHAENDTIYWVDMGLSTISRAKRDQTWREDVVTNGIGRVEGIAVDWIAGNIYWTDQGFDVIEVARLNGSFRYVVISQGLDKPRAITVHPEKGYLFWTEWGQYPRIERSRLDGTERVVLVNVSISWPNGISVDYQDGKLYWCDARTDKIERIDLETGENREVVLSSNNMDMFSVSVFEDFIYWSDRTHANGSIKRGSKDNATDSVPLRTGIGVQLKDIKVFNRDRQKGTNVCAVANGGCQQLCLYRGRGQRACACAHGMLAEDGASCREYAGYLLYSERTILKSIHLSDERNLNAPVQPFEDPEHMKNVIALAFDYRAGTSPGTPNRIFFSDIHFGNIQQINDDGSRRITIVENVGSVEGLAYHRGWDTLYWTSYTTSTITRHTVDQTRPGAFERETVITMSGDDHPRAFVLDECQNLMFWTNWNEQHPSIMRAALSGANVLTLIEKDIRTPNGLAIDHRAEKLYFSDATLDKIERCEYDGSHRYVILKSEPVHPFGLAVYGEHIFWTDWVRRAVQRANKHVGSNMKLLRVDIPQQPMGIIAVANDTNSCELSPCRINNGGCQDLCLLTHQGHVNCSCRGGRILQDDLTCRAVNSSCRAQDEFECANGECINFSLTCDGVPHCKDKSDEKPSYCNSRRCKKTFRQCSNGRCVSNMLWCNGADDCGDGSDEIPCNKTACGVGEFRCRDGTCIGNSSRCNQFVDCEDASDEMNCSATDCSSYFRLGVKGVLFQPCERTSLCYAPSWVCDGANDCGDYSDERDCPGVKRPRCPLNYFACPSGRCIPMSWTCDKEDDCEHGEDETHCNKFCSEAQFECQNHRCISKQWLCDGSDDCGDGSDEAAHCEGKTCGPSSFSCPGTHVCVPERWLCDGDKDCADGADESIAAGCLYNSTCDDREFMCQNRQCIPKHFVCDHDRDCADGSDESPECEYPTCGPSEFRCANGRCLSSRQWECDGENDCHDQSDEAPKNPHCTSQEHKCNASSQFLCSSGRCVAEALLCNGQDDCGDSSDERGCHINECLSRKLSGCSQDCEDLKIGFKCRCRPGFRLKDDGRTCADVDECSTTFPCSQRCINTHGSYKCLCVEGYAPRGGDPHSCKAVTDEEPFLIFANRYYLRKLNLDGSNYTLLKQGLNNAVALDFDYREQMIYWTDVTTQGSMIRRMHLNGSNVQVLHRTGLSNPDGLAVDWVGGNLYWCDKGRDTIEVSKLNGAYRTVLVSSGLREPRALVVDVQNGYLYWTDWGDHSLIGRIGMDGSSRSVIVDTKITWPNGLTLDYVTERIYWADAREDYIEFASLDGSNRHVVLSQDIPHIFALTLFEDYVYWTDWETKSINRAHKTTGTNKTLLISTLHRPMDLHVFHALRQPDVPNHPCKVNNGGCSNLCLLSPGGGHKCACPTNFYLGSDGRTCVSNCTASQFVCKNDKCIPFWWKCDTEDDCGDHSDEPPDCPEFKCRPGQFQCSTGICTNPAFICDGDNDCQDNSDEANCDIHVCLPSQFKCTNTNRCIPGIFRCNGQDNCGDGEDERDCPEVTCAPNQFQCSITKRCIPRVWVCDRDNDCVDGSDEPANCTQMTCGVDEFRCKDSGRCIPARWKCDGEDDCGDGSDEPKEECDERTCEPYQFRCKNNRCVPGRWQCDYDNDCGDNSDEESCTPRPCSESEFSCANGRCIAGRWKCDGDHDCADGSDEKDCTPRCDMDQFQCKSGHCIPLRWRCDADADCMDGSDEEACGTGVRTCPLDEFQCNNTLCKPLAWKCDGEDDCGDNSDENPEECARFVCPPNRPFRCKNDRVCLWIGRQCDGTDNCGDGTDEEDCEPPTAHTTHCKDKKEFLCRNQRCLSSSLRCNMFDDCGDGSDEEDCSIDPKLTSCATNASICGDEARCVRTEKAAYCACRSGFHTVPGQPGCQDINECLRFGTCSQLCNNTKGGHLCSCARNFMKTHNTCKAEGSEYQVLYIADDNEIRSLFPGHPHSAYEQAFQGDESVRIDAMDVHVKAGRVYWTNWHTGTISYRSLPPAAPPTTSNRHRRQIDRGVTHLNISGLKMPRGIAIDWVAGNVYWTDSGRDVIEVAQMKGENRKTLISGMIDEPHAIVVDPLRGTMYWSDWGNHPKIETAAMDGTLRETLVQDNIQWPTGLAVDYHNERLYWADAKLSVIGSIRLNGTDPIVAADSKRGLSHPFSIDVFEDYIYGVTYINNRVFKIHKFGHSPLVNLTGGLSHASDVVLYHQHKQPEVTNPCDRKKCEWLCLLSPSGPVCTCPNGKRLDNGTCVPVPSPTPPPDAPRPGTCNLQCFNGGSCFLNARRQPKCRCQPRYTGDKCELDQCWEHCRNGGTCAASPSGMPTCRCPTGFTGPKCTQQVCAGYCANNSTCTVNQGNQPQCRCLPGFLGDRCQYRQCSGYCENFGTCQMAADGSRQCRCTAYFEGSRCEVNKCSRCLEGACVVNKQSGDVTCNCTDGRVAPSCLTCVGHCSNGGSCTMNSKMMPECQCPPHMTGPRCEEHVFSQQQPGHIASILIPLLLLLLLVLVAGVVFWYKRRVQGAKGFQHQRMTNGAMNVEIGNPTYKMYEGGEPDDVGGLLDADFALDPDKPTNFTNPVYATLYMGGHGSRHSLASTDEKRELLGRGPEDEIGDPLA
row,"decrease in clearance of 10 nM intact [35S]MMP-1 from the conditioned medium of HTB94 cells, 0-24 h [%]",Substance
1,20,full length MMP-1 (enzyme)

# Biological target: TIMP-3 (Homo sapiens) (UniProt P35625)
# Test: not given
# Settings: cited from earlier work
row,Substance,pKi
1,MMP-1 (from UniProt P03956),8.96

# Biological target: LRP-1 (Homo sapiens) (UniProt Q07954)
# Test: not given
# Settings: cited from earlier work
# LRP-1 (Homo sapiens), sequence (Q07954 20-4544): as above
row,Substance,pKd
1,RAP (from UniProt P30533),8.85

# Biological target: TIMP-1 (Homo sapiens) (UniProt P01033)
# Test: not given
# Settings: cited from earlier work
row,Substance,pKi
1,MMP-1 (from UniProt P03956),9.42

# Biological target: low-density lipoprotein receptor-related protein 1 (LRP-1) (UniProt Q07954)
# Test: SPR; BIAcore T200; LRP-1 immobilised on a CM5 chip by amine coupling (3000 RU); 25 °C; 150 mM NaCl, 10 mM CaCl2, 50 mM Tris-HCl, 0.01% Tween-20, pH 7.5; 30 μl/min; ligands or pre-formed complexes injected; one-site binding model; triplicate
# Settings: not given
pKd,koff [s⁻¹],kon [M⁻¹ s⁻¹],Substance
8.37,0.00246,573000,MMP-1/N-TIMP-3 complex
7.97,0.00345,326000,MMP-13/TIMP-1 complex (from UniProt P45452 20-471; P01033 24-207)
7.46,0.00468,136000,"MMP-1 (E200A), catalytically inactive form of MMP-1 (enzyme)"
8.30,0.00228,461000,MMP-1/TIMP-3 complex (from UniProt P35625 24-211)
8.11,0.00327,419000,MMP-1/TIMP-2 complex (from UniProt P16035 27-220)
8.25,0.00241,431000,MMP-13/TIMP-2 complex (from UniProt P45452 20-471; P16035 27-220)
8.47,0.00295,882000,MMP-13/TIMP-3 complex (from UniProt P45452 20-471; P35625 24-211)
7.78,0.0064,390000,MMP-1/TIMP-1 complex (from UniProt P01033 24-207)
7.59,0.00598,234000,"MMP-13 (E204A), catalytically inactive mutant (enzyme)"
